1 molecule from patent US20220289850 (published 2022) can be followed below.

The target in the assay is T1, mouse integrin avb8 (mouse).
T1 chain 1: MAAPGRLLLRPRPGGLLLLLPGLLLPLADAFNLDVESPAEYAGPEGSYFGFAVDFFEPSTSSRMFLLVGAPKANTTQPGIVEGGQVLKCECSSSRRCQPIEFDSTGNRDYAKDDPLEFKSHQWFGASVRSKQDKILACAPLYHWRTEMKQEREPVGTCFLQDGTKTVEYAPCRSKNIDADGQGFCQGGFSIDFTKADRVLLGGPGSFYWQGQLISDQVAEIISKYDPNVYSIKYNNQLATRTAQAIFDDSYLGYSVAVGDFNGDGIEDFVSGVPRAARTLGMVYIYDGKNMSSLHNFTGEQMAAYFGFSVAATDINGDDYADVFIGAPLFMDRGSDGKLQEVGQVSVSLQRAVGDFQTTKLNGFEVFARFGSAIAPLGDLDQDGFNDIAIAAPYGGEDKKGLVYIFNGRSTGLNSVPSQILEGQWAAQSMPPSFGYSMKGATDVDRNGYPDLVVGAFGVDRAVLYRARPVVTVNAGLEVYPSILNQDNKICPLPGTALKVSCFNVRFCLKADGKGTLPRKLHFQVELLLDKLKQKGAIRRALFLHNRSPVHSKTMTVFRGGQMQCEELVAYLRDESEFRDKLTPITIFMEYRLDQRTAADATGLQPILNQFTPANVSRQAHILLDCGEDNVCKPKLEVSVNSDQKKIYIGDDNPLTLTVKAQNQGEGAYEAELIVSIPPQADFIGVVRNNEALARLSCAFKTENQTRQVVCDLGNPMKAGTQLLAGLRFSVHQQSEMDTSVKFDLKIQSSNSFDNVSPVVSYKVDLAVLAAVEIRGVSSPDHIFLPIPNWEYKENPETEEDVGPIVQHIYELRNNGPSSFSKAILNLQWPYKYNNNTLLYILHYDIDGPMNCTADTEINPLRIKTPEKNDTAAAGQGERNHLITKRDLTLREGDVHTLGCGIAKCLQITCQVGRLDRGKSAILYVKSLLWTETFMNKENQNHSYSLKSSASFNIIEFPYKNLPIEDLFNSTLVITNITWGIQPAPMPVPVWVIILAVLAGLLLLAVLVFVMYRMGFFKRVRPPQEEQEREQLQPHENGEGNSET
T1 chain 2: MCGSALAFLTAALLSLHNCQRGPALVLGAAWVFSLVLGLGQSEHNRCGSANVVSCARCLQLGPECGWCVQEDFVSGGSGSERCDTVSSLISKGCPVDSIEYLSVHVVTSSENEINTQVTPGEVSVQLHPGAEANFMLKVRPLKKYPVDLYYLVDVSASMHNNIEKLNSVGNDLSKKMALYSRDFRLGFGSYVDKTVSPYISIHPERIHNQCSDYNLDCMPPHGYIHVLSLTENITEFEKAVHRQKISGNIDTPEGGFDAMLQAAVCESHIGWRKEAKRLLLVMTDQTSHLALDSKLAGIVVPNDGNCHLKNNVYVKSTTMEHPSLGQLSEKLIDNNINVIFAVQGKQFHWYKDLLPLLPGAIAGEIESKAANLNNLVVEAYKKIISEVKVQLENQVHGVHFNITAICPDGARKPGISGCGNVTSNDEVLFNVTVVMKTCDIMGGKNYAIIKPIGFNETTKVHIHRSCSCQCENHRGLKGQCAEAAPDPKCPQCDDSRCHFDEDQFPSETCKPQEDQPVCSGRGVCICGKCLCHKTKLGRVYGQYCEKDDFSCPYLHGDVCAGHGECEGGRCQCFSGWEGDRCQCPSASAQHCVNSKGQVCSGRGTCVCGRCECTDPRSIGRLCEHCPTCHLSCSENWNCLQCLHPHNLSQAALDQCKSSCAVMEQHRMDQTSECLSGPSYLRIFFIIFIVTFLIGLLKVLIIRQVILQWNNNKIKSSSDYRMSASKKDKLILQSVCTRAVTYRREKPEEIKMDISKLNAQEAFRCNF
The experiment in a line: SPR. Background: Surface plasmon resonance follows binding to a sensor surface in real time, without labels.

B1: ADWA11 2.4 Fab (antibody, V domains shown)
VH: EVQLVESGGGLVQPGGSLRLSCAASGFNIKDYYMNWVRQAPGKGLEWVGWIDPDQGNTIYEPKFQGRFTISADTSKNSAYLQMNSLRAEDTAVYYCARRLLMDYWGQGTLVTVSS
VL: DIQMTQSPSSLSASVGDRVTITCRSTKSLSHFNGNTYLFWYQQKPGKAPKRLIYYMSSLASGVPSRFSGSGSGTDFTLTISSLQPEDFATYYCQQSLEYPFTFGGGTKVEIK
Turning to B1, the affinity, expressed as Kd, was 0.0708 nM.
